The record followed here is US20190352423A1 (Genmab, published 2019).

B1: bsCD63xb12-Duo3 (bispecific antibody, part only; not given: b12 control arm VH and VL, IgG1, V domains shown, part only)
VH: EVQLQQSGPELVKPGASVKMSCKASGYTFTSYVMHWVRQTPGQGLEWIGYITPYNDGTKYNEKFKGKATLTSDKSSSTAYMELSSLTSEDSAVYYCVGGDNYYYAMDYWGQGTSVTVSAA
VL: NIMVTQSPSSLAVSAGEKVTMSCKSSQSVLYSSNQKNYLAWYQQKPGQSPKLLIYWASTRVSGVPDRFTGSGSGTDFTLTISRVQAEDLAVYYCHQYFSSFTFGSGTKLEIKRT
B2: bsCD63xb12-Duo3 with CD63 variant LS52 (bispecific antibody, part only; not given: b12 control arm VH and VL, V domains shown, part only)
VH: EVQLQQSGPELVKPGASVKMSCKASGYTFTSYVMHWVRQTPGQGLEWIGYITPYNDGTKYNEKFKGKATLTSDKSSSTAYMELSSLTSEDSAVYYCVGGDNYYYAMDYWGQGTSVTVSAA
VL: NIMVTQSPSSLAVSAGEKVTMSCKSSQSVLYHSNQKNYLAWYQQKPGQSPKLLIYWASTRVSGVPDRFTGSGSGTDFTLTISRVQAEDLAVYYCHQYFSSFTFGSGTKLEIKRT
B3: bsCD63xb12-Duo3 with CD63 variant LQ47 (bispecific antibody, part only; not given: b12 control arm, V domains shown, part only)
VH: EVQLQQSGPELVKPGASVKMSCKASGYTFTSYVMHWVRQTPGQGLEWIGYITPYNDGTKYNEKFKGKATLTSDKSSSTAYMELSSLTSEDSAVYYCVGGDNYYYAMDYWGQGTSVTVSAA
VL: NIMVTQSPSSLAVSAGEKVTMSCKSSHSVLYSSNQKNYLAWYQQKPGQSPKLLIYWASTRVSGVPDRFTGSGSGTDFTLTISRVQAEDLAVYYCHQYFSSFTFGSGTKLEIKRT
B4: bsHER2xCD63-Duo3 with CD63 variant LS52 (bispecific antibody, part only; not given: HER2 arm (IgG1-153) VH and VL, V domains shown, part only)
VH: EVQLQQSGPELVKPGASVKMSCKASGYTFTSYVMHWVRQTPGQGLEWIGYITPYNDGTKYNEKFKGKATLTSDKSSSTAYMELSSLTSEDSAVYYCVGGDNYYYAMDYWGQGTSVTVSAA
VL: NIMVTQSPSSLAVSAGEKVTMSCKSSQSVLYHSNQKNYLAWYQQKPGQSPKLLIYWASTRVSGVPDRFTGSGSGTDFTLTISRVQAEDLAVYYCHQYFSSFTFGSGTKLEIKRT
B5: bsCD63xb12-Duo3 with CD63 variant Y127 (bispecific antibody, part only; not given: b12 control arm VH and VL, V domains shown, part only)
VH: EVQLQQSGPELVKPGASVKMSCKASGYTFTSYVMHWVRQTPGQGLEWIGYITPYNDGTKYNEKFKGKATLTSDKSSSTAYMELSSLTSEDSAVYYCVGGDNYYYAMDHWGQGTSVTVSAA
VL: NIMVTQSPSSLAVSAGEKVTMSCKSSQSVLYSSNQKNYLAWYQQKPGQSPKLLIYWASTRVSGVPDRFTGSGSGTDFTLTISRVQAEDLAVYYCHQYFSSFTFGSGTKLEIKRT
B6: bsHER2xCD63-Duo3 with CD63 variant LQ47 (bispecific antibody, part only; not given: HER2 arm, V domains shown, part only)
VH: EVQLQQSGPELVKPGASVKMSCKASGYTFTSYVMHWVRQTPGQGLEWIGYITPYNDGTKYNEKFKGKATLTSDKSSSTAYMELSSLTSEDSAVYYCVGGDNYYYAMDYWGQGTSVTVSAA
VL: NIMVTQSPSSLAVSAGEKVTMSCKSSHSVLYSSNQKNYLAWYQQKPGQSPKLLIYWASTRVSGVPDRFTGSGSGTDFTLTISRVQAEDLAVYYCHQYFSSFTFGSGTKLEIKRT
B7: bsHER2xCD63-Duo3 with CD63 variant Y46 (bispecific antibody, part only; not given: HER2 arm (IgG1-153) VH and VL, V domains shown, part only)
VH: EVQLQQSGPELVKPGASVKMSCKASGHTFTSYVMHWVRQTPGQGLEWIGYITPYNDGTKYNEKFKGKATLTSDKSSSTAYMELSSLTSEDSAVYYCVGGDNYYYAMDYWGQGTSVTVSAA
VL: NIMVTQSPSSLAVSAGEKVTMSCKSSQSVLYSSNQKNYLAWYQQKPGQSPKLLIYWASTRVSGVPDRFTGSGSGTDFTLTISRVQAEDLAVYYCHQYFSSFTFGSGTKLEIKRT
B8: bsCD63xb12-Duo3 with CD63 variant P72H (bispecific antibody, part only; not given: b12 control arm, V domains shown, part only)
VH: EVQLQQSGPELVKPGASVKMSCKASGYTFTSYVMHWVRQTPGQGLEWIGYITHYNDGTKYNEKFKGKATLTSDKSSSTAYMELSSLTSEDSAVYYCVGGDNYYYAMDYWGQGTSVTVSAA
VL: NIMVTQSPSSLAVSAGEKVTMSCKSSQSVLYSSNQKNYLAWYQQKPGQSPKLLIYWASTRVSGVPDRFTGSGSGTDFTLTISRVQAEDLAVYYCHQYFSSFTFGSGTKLEIKRT
B9: bsCD63xb12-Duo3 with CD63 variant T71H (bispecific antibody, part only; not given: b12 control arm, V domains shown, part only)
VH: EVQLQQSGPELVKPGASVKMSCKASGYTFTSYVMHWVRQTPGQGLEWIGYIHPYNDGTKYNEKFKGKATLTSDKSSSTAYMELSSLTSEDSAVYYCVGGDNYYYAMDYWGQGTSVTVSAA
VL: NIMVTQSPSSLAVSAGEKVTMSCKSSQSVLYSSNQKNYLAWYQQKPGQSPKLLIYWASTRVSGVPDRFTGSGSGTDFTLTISRVQAEDLAVYYCHQYFSSFTFGSGTKLEIKRT
B10: bsCD63xb12-Duo3 with CD63 variant Y46 (bispecific antibody, part only; not given: b12 control arm VH and VL, V domains shown, part only)
VH: EVQLQQSGPELVKPGASVKMSCKASGHTFTSYVMHWVRQTPGQGLEWIGYITPYNDGTKYNEKFKGKATLTSDKSSSTAYMELSSLTSEDSAVYYCVGGDNYYYAMDYWGQGTSVTVSAA
VL: NIMVTQSPSSLAVSAGEKVTMSCKSSQSVLYSSNQKNYLAWYQQKPGQSPKLLIYWASTRVSGVPDRFTGSGSGTDFTLTISRVQAEDLAVYYCHQYFSSFTFGSGTKLEIKRT
B11: bsHER2xCD63-Duo3 with CD63 variant Y79H (bispecific antibody, part only; not given: HER2 arm (IgG1-153) VH and VL, V domains shown, part only)
VH: EVQLQQSGPELVKPGASVKMSCKASGYTFTSYVMHWVRQTPGQGLEWIGYITPYNDGTKHNEKFKGKATLTSDKSSSTAYMELSSLTSEDSAVYYCVGGDNYYYAMDYWGQGTSVTVSAA
VL: NIMVTQSPSSLAVSAGEKVTMSCKSSQSVLYSSNQKNYLAWYQQKPGQSPKLLIYWASTRVSGVPDRFTGSGSGTDFTLTISRVQAEDLAVYYCHQYFSSFTFGSGTKLEIKRT
B12: bsHER2xCD63-Duo3 with CD63 variant Y127 (bispecific antibody, part only; not given: HER2 arm (IgG1-153) VH and VL, V domains shown, part only)
VH: EVQLQQSGPELVKPGASVKMSCKASGYTFTSYVMHWVRQTPGQGLEWIGYITPYNDGTKYNEKFKGKATLTSDKSSSTAYMELSSLTSEDSAVYYCVGGDNYYYAMDHWGQGTSVTVSAA
VL: NIMVTQSPSSLAVSAGEKVTMSCKSSQSVLYSSNQKNYLAWYQQKPGQSPKLLIYWASTRVSGVPDRFTGSGSGTDFTLTISRVQAEDLAVYYCHQYFSSFTFGSGTKLEIKRT
B13: bsCD63xb12-Duo3 with CD63 variant Y79H (bispecific antibody, part only; not given: b12 control arm, V domains shown, part only)
VH: EVQLQQSGPELVKPGASVKMSCKASGYTFTSYVMHWVRQTPGQGLEWIGYITPYNDGTKHNEKFKGKATLTSDKSSSTAYMELSSLTSEDSAVYYCVGGDNYYYAMDYWGQGTSVTVSAA
VL: NIMVTQSPSSLAVSAGEKVTMSCKSSQSVLYSSNQKNYLAWYQQKPGQSPKLLIYWASTRVSGVPDRFTGSGSGTDFTLTISRVQAEDLAVYYCHQYFSSFTFGSGTKLEIKRT
B14: bsHER2xCD63-Duo3 (bispecific antibody, part only; not given: HER2 arm, IgG1, V domains shown, part only)
VH: EVQLQQSGPELVKPGASVKMSCKASGYTFTSYVMHWVRQTPGQGLEWIGYITPYNDGTKYNEKFKGKATLTSDKSSSTAYMELSSLTSEDSAVYYCVGGDNYYYAMDYWGQGTSVTVSAA
VL: NIMVTQSPSSLAVSAGEKVTMSCKSSQSVLYSSNQKNYLAWYQQKPGQSPKLLIYWASTRVSGVPDRFTGSGSGTDFTLTISRVQAEDLAVYYCHQYFSSFTFGSGTKLEIKRT
B15: bsHER2xCD63-Duo3 with CD63 variant T71H (bispecific antibody, part only; not given: HER2 arm (IgG1-153) VH and VL, V domains shown, part only)
VH: EVQLQQSGPELVKPGASVKMSCKASGYTFTSYVMHWVRQTPGQGLEWIGYIHPYNDGTKYNEKFKGKATLTSDKSSSTAYMELSSLTSEDSAVYYCVGGDNYYYAMDYWGQGTSVTVSAA
VL: NIMVTQSPSSLAVSAGEKVTMSCKSSQSVLYSSNQKNYLAWYQQKPGQSPKLLIYWASTRVSGVPDRFTGSGSGTDFTLTISRVQAEDLAVYYCHQYFSSFTFGSGTKLEIKRT
B16: bsCD63N74Hxb12 (bispecific antibody, part only; not given: b12 control arm, constant regions, V domains shown, not shown: another chain or arm of the molecule; a dimerising Fc or GST)
VH: EVQLQQSGPELVKPGASVKMSCKASGYTFTSYVMHWVRQTPGQGLEWIGYITPYHDGTKYNEKFKGKATLTSDKSSSTAYMELSSLTSEDSAVYYCVGGDNYYYAMDYWGQGTSVTVSA
VL: NIMVTQSPSSLAVSAGEKVTMSCKSSQSVLYSSNQKNYLAWYQQKPGQSPKLLIYWASTRVSGVPDRFTGSGSGTDFTLTISRVQAEDLAVYYCHQYFSSFTFGSGTKLEIK

Sequence of CD63 on cells (human) (P08962 2-238): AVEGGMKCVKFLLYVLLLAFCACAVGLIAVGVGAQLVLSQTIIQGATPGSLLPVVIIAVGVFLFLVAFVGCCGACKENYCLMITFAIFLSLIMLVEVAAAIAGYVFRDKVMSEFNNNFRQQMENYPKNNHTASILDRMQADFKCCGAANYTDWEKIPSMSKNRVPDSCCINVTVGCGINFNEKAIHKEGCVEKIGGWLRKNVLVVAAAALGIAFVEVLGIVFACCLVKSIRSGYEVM

This assay concerns the target CD63 on cells (human) (UniProt P08962). Nature of the assay: cell-based or functional assay.
For the molecule B1, the IC50 of cytotoxicity, Colo205 cells (CellTiter-GLO, 4 days) was 2.61 µg/mL; the IC50 of cytotoxicity, HCC1954 cells (CellTiter-GLO, 4 days) is 0.424 µg/mL; the IC50 of cytotoxicity, SK-OV-3 cells (CellTiter-GLO, 4 days) turned out to be 0.815 µg/mL.
For B2 the same measures were 2.25 µg/mL, 0.662 µg/mL and 1.13 µg/mL.
For the molecule B3, the IC50 of cytotoxicity, Colo205 cells (CellTiter-GLO, 4 days) came to 2.43 µg/mL; the IC50 of cytotoxicity, HCC1954 cells (CellTiter-GLO, 4 days) came to 0.753 µg/mL; the IC50 of cytotoxicity, SK-OV-3 cells (CellTiter-GLO, 4 days) stood at 1.11 µg/mL.
Turning to B4, the IC50 of cytotoxicity, Colo205 cells (CellTiter-GLO, 4 days) is 0.567 µg/mL; the IC50 of cytotoxicity, HCC1954 cells (CellTiter-GLO, 4 days) came to 0.018 µg/mL; the IC50 of cytotoxicity, SK-OV-3 cells (CellTiter-GLO, 4 days) amounted to 0.047 µg/mL.
In turn, B5 displayed an IC50 of cytotoxicity, Colo205 cells (CellTiter-GLO, 4 days) of 1.89 µg/mL; an IC50 of cytotoxicity, HCC1954 cells (CellTiter-GLO, 4 days) of 0.664 µg/mL; an IC50 of cytotoxicity, SK-OV-3 cells (CellTiter-GLO, 4 days) of 1.08 µg/mL.
For B6 the same measures were 0.587 µg/mL, 0.017 µg/mL and 0.048 µg/mL.
For B7 the same measures were 0.754 µg/mL, 0.016 µg/mL and 0.045 µg/mL.
In the case of B8, the IC50 of cytotoxicity, Colo205 cells (CellTiter-GLO, 4 days) turned out to be 10 µg/mL; the IC50 of cytotoxicity, HCC1954 cells (CellTiter-GLO, 4 days) came to 0.92 µg/mL; the IC50 of cytotoxicity, SK-OV-3 cells (CellTiter-GLO, 4 days) amounted to 1.72 µg/mL; the lysosomal co-localization with LAMP1 in SK-OV-3 cells (confocal microscopy, 16 hours) is 10 fold lower.
Regarding B9, the IC50 of cytotoxicity, Colo205 cells (CellTiter-GLO, 4 days) worked out at 10 µg/mL; the IC50 of cytotoxicity, HCC1954 cells (CellTiter-GLO, 4 days) is 4.89 µg/mL; the IC50 of cytotoxicity, SK-OV-3 cells (CellTiter-GLO, 4 days) worked out at 3.8 µg/mL.
For B10 the same measures were 5.64 µg/mL, 0.9 µg/mL and 1.37 µg/mL.
In the case of B11, the IC50 of cytotoxicity, Colo205 cells (CellTiter-GLO, 4 days) is 0.432 µg/mL; the IC50 of cytotoxicity, HCC1954 cells (CellTiter-GLO, 4 days) was found to be 0.008 µg/mL; the IC50 of cytotoxicity, SK-OV-3 cells (CellTiter-GLO, 4 days) is 0.021 µg/mL.
As for B12, the IC50 of cytotoxicity, Colo205 cells (CellTiter-GLO, 4 days) was found to be 0.472 µg/mL; the IC50 of cytotoxicity, HCC1954 cells (CellTiter-GLO, 4 days) worked out at 0.017 µg/mL; the IC50 of cytotoxicity, SK-OV-3 cells (CellTiter-GLO, 4 days) was determined as 0.061 µg/mL.
For B13, the IC50 of cytotoxicity, Colo205 cells (CellTiter-GLO, 4 days) was 3.41 µg/mL; the IC50 of cytotoxicity, HCC1954 cells (CellTiter-GLO, 4 days) amounted to 0.42 µg/mL; the IC50 of cytotoxicity, SK-OV-3 cells (CellTiter-GLO, 4 days) worked out at 0.93 µg/mL.
With B14, the IC50 of cytotoxicity, Colo205 cells (CellTiter-GLO, 4 days) was 0.416 µg/mL; the IC50 of cytotoxicity, HCC1954 cells (CellTiter-GLO, 4 days) was 0.009 µg/mL; the IC50 of cytotoxicity, SK-OV-3 cells (CellTiter-GLO, 4 days) was 0.017 µg/mL.
For B15 the same measures were 2.23 µg/mL, 0.03 µg/mL and 0.115 µg/mL.
Turning to B16, the lysosomal co-localization with LAMP1 in SK-OV-3 cells (confocal microscopy, 16 hours) came to 10 fold lower.
